Molecular target: T1, His-SUDV-NP(34-367) (Sudan virus (SUDV), strain Boniface, UniProt Q9QP77 34-367)
T1 sequence: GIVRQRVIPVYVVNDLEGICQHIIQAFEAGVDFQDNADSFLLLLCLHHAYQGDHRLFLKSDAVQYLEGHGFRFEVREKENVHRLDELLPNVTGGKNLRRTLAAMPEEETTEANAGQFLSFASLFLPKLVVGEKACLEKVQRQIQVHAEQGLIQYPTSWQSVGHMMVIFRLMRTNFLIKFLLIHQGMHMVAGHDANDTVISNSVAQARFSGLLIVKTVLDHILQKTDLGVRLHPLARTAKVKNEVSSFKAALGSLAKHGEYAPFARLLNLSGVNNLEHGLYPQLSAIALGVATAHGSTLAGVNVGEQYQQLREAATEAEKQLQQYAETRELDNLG
Assay: BLI; […] ([…]), 60 s association, 60 s dissociation; […]; Octet Red
Conditions: both partners purified

## MQQDRTYRHHGPEVSGWFSEQLMTGKIPLTEVFV [SUDV VP35 wild-type chaperone domain peptide (residues 1 to 34)]
  Kd: ~3.86 nM
